Target: mouse TIGIT, full length, on CHO-K1 cells (mouse) (UniProt P86176)
Assay: flow cytometry, CHO-K1 cells transiently transfected with mouse TIGIT; target taken from the legend paragraph 32 and from paragraph 286 (FIG. 4A = mouse TIGIT); paragraph 286 however names GNE10A7, not G1GD7, as the control for mouse TIGIT

Sequence of mouse TIGIT, full length, on CHO-K1 cells (mouse) (P86176 29-249 limits assumed): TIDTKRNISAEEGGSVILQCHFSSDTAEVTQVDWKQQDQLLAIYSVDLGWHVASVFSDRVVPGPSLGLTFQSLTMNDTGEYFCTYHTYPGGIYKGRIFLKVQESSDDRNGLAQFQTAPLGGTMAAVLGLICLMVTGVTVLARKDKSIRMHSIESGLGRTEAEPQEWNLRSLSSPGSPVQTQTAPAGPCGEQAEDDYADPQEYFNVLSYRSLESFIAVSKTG

EC50 (read off the curve): 0.8 nM
Substance: eBioscience G1GD7 (antibody)

— patent US20220064294A1
